Results as given in paper PMC3811882, “The PR/SET Domain Zinc Finger Protein Prdm4 Regulates Gene Expression in Embryonic Stem Cells but Plays a Nonessential Role in the Developing Mouse Embryo”.

Target: Prdm4-ZFD (UniProt Q80V63 582-760)
Assay: EMSA; EMSA as previously described (ref 41); 0.8% agarose gels for nuclear complexes, 5% acrylamide for purified His-tagged Prdm4; buffer, salt, pH and temperature not given
Conditions: protein: recombinant; tags: His-HA; 5' overhang 2 nt (GG) on each strand

Prdm4-ZFD, sequence (Q80V63 582-760): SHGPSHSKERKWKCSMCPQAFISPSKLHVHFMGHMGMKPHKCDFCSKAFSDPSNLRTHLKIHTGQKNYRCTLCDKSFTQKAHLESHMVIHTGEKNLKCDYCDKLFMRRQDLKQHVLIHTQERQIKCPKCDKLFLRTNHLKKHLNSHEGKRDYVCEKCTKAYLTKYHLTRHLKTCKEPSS

Row | Binder | binding result
1 | wild-type Bahcc1 (dsDNA) DNA 1: GGCCTGGGTCGGCCCGCGGGGATCCTGGAAACCGTCCCCGGTTTATCTCCTT DNA 2: GGAAGGAGATAAACCGGGGACGGTTTCCAGGATCCCCGCGGGCCGACCCAGG | binds
2 | ΔGAAAC Bahcc1 (dsDNA) DNA 1: GGCCTGGGTCGGCCCGCGGGGATCCTGTCCCACGTCCCCGGTTTATCTCCTT DNA 2: GGAAGGAGATAAACCGGGGACGTGGGACAGGATCCCCGCGGGCCGACCCAGG | no binding
